What all share (test): fluorescence anisotropy
Conditions in all cases: fluorescein-12-UTP incorporated during transcription; 50 mM Tris pH 7.5, 40 mM KCl, 10 mM MgCl2, 1 mM DTT, 10 nM fluorescein-labeled RNA, 21 C
On the technique in general: Fluorescence polarisation rises when a labelled molecule tumbles more slowly, as on binding a larger partner.

Data set [1] concerns A3C-A3Hhap II (synthetic double domain chimera) (Homo sapiens (synthetic chimera)).
In a further data set the test system is A3G (Homo sapiens).
In the next data set the test system is A3Hhap II (Homo sapiens).

Broadly, the Kd is the equilibrium constant for the complex coming apart.

Regarding HIV-1 5'UTR RNA (nt 1-497), the equilibrium dissociation constant (Kd) in data set [1] was determined as 0.03 nM; in the data set on A3G (Homo sapiens), 6.36 nM; with A3Hhap II (Homo sapiens), 0.52 nM.

(Values after paper PMC8266076.)
